How the values were obtained:
[1] = target: T1, HIV Reverse Transcriptase (Human immunodeficiency virus type 1 group M subtype B, UniProt P04585); experiment: RT-PCR of 2.2 kb eGFP transcript with HIV RT, with or without beta-thujaplicinol; format: biochemical
T1 construct: a recombinant HIV Reverse Transcriptase; purchased Worthington Biochemical Corporation LS05003
From the text: (§1) Samples were DNase treated using the Qiagen RNase-Free DNase Set (Qiagen Catalog #79254) followed by purification using the Qiagen RNeasy Mini Kit (Qiagen Catalog #74104) and manufacturer's instructions. To eliminate potential gDNA contamination, each RNA sample was DNase treated four times.
(§2) cDNA was generated using Invitrogen's SuperScript III First-Strand Synthesis System for RT-PCR (Invitrogen Catalog #18080-051) or a recombinant HIV Reverse Transcriptase (HIV RT, Worthington Biochemical Corporation Catalog #LS05003). All reactions received 2 μl 10 RT reaction buffer, 4 μl 25 mM MgCl2, 2 μl 0.1 M DTT, 1 μl 10 mM dNTPs, and 2 μM primer (8 μM when Phosphorothioate Primer used). For reactions using Superscript III, 200 U enzyme was used. Reactions using HIV RT contained 10 U enzyme. Different concentrations of RNA template were used, ranging from 1.5 to 5 μg/reaction. Table 21. No-RT and no-template controls were set up during reverse transcription. Reactions using Superscript III enzyme were incubated at 65° C. for 5 minutes, 50° C. for 60 minutes, and 85° C. for 5 minutes. Reactions using HIV RT were incubated at 65° C. for 5 minutes, 37° C. for 60 minutes, and 85° C. for 5 minutes. HIV RT was tested in the presence and absence of beta-thujaplicinol.
(§3) PCR Analysis: PCR was performed using primers PCR-F2 and PCR-R2. PCR products were resolved using a 1% agarose gel and purified using the QIAquick Gel Extraction Kit (Qiagen Catalog #28704). […]

[2] = Sequence analysis of RT-PCR product against reference sequence; details: SV40 DNA primer and HIV RT used in cDNA generation
Method: Sequence Analysis: Sequencing was performed using BigDye Terminator Cycle Sequencing. Data analysis was performed by GENEWIZ with DNASTAR Lasergene software. FIG. 34 (SEQ ID NO.: 23) depicts the WT eGFP Consensus sequence (2,225 bp); SV40 DNA primer and HIV RT used in cDNA generation. FIG. 35 (SEQ ID NO.: 24) depicts the Alpha-Thio-Uridine eGFP Consensus (2,225 bp); SV40 RNA primer and Superscript used in cDNA generation.

[3] = mRNA quality check before and after DNase treatment (agarose gel, OD 260/280); format: physicochemical
Method: The experimental procedure and assay readout for the analysis and removal of the mRNA contamination by plasmidic DNA was as follows: 1) the 4 mRNAs solutions were thawed, aliquoted and stored at −80° C., 2) aliquots of the mRNAs solutions were treated with the DNase as recommended by the manufacturer (Qiagen, cat #79254): four rounds of DNase were successively performed, 3) following the DNase digestion, the mRNAs were purified on columns as recommended by the manufacturer (Qiagen, RNeasy Elute), 4) the eluates were quantified and controlled on an Agarose gel, 5) a PCR amplification reaction was performed to evaluate the DNA contamination of the mRNA solutions before and after the DNase treatment.
Timeline of mRNAs solutions control and DNA digestion. mRNA solutions are thawed and digested with DNase. The solutions are purified on a column. The mRNA is quantified and quality control on an agarose gel is performed after purification. A PCR reaction of the mRNA aliquots is performed on aliquots from before and after purification.

Superscript III = experiment: RT-PCR of 2.2 kb eGFP transcript with Superscript III; format: biochemical; details: 1.5 μg RNA
From the text: as §1, §2, §3

B1: EGFP-WT: 2.2 kb wild type eGFP transcript (RNA template synthesized with plasmid pAFTAB) (nucleic acid)
DNA: TTGGCCACTCCCTCTCTGCGCGCTCGCTCGCTCACTGAGGCCGCCCGGGCAAAGCCCGGGCGTCGGGCGACCTTTGGTCGCCCGGCCTCAGTGAGCGAGCGAGCGCGCAGAGAGGGAGTGGCCAA
modifications: chemistry not fully specified; the letters are possibly those of the target site
2.2 kb fragment of interest in PCR from RT reaction ([1]; SV40 DNA primer, 1.5 μg RNA, β-Thujaplicinol 0 μM): present
2.2 kb fragment of interest in PCR from RT reaction ([1]; SV40 DNA primer, 2 μg RNA, β-Thujaplicinol 0 μM): present
2.2 kb fragment of interest in PCR from RT reaction ([1]; SV40 DNA primer, 2 μg RNA, β-Thujaplicinol 1 μM): present
2.2 kb fragment of interest in PCR from RT reaction ([1]; SV40 DNA primer, 5 μg RNA, β-Thujaplicinol 0.2 μM): present
2.2 kb fragment of interest in PCR from RT reaction ([1]; SV40 RNA primer, 1.5 μg RNA, β-Thujaplicinol 0 μM): present
2.2 kb fragment of interest in PCR from RT reaction ([1]; SV40 RNA primer, 1.5 μg RNA, β-Thujaplicinol 0.2 μM): present
2.2 kb fragment of interest in PCR from RT reaction ([1]; SV40 RNA primer, 2 μg RNA, β-Thujaplicinol 1 μM): present
consensus sequence match to the reference sequence [2]: 100%
OD 260/280 Post-treatment ([3]; mRNA solution after DNase treatment and column purification): 2.05
OD 260/280 Pre-treatment ([3]; mRNA solution before DNase treatment and column purification): 2.07
2.2 kb fragment of interest in PCR from RT reaction (Superscript III; PBS RNA primer): present
2.2 kb fragment of interest in PCR from RT reaction (Superscript III; PCR-R2 primer): present
2.2 kb fragment of interest in PCR from RT reaction (Superscript III; SV40 DNA primer): present
